According to the nanobody polyreactivity screen of Harvey et al. (2022):

Assay: yeast display, Sf9 membrane polyspecificity reagent, FACS + sequencing; frameworks hold sequencing errors
Summary of the method: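 A nanobody's polyreactivity label depends on the gate it was sorted from. Yeast display cells were stained with 10% biotinylated, detergent-solubilized Sf9 membrane reagent for 1 hour at 4 °C, enriched on streptavidin microbeads and sorted by FACS. The low and high (top ~1%) gates were set on anti-HA fluorescence for expression and streptavidin fluorescence for reagent binding.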

QVQLVESGVGLVKAGVSLRLSSDASARIFPHYAMGWYRQAPGKERELFAPINVDGGRTYYPDSVKGRFTISRDNAKNTVYLQLNILKPEDTAVYYCAAKPFLYHDQDYGYAVEFNYWGQGTQVTVSS
polyreactivity (PSR sort gate): low polyreactivity

QVQLVESGGGLVQAGGSLRLSCAASGYTFSRNAMGWYRQAPGKERELVAAITGSGGSTYYADSVKGRFTISRDNAKNTVYLQMNSLKPEDTAVYYCATEVKRGYVGFDYWGQGTQVTVSS
polyreactivity (PSR sort gate): low polyreactivity

QVQLVESGGGLVQAGGSLRLSCAATGSTFDRNAMVWYRLAPGKERELVAAISWRGGRTYYADSVKGRFTISRDNAKNTVYLQMNSLKPEDTAVYYCSAKGPGIRSVEGYDYWGQGTQVTVSS
polyreactivity (PSR sort gate): low polyreactivity

QVQLVESGGGLVQAGGSLRLSSAASGFIIPDYGMGWYRQAPGKDSELVAAISRNGVSTYYADSVKGRFTISRDTAKNTVYLQMNSLKPEATAVYYCAARYYRIRRVSKSGYYWGQGTQVTVSS
polyreactivity (PSR sort gate): low polyreactivity

QVQLVESGGGLVQAGGSLRLSCAASGITFKDYAMGWYRQATGKERELVAVISYSGGSTYYADSVKGRFTISRDNAKNTVYLQMNSLKPEDTAVYYCAARVGPEYDWGQGTQVTVSS
polyreactivity (PSR sort gate): low polyreactivity

QVQLVESGGGLVQAGGSLRLSCAASGGTFVQYVMGWYRPAPGKERELVAAISASGGRTYYADSVKGRFTISRDNAKNSVYLQMNSLKPEDTAVDYCAAERKGSVTYEYDYWGQGTQVSVSS
polyreactivity (PSR sort gate): high polyreactivity

QVQLVESGGGLVQAGGSLRLSCAASGSTFGWYAMGWYRQAPGKESELVAAIRTSGGDSTYYADSVKGRFTISRDNAKNTVYLQMNSLKPEDTAVYYCAKTVWWYYRYPFDYWGQGTQGTVSS
polyreactivity (PSR sort gate): low polyreactivity

QVQLVESGGGLVQAGGSLRLTCAASGFIFTYNAMGWYRQAPGKERELVAAISWSGSRTNYADTVKGRFTISRDNAKHTVYLQMNSLKPEDTAVFYCAAKYKYRTYNYWGQGTQVTVSS
polyreactivity (PSR sort gate): high polyreactivity

QVQLVESGGGLVQAGGSLRLSCAASGSIFQWNAMGWYRQAPGKERELVAAMSWSGTRTYYADSVKGRFTISRDNAKNTVYLQMNSLKPEDTAVYDCAFRGGKPTYRYDYWGQGTQVTVSS
polyreactivity (PSR sort gate): high polyreactivity

QVQLVESGGGLVQAGGSLRLSCAASGFIFPTYAMGWYRQAPGKERELVATITTNAGGTYYADSVKGRFTISRDNAKNTVYLQMNSLKPEDTAVYYCAHDYDGYVWDTEYDYWGQGTQVTVSS
polyreactivity (PSR sort gate): low polyreactivity

QVQLVESGGGLVQAGGSLRLSCAASGRTFFKYDMGWYRQAPAKERELVAAITWTGGSTYYADSVKGRFTISRDYAKNTVYLQMNSLKPEDTAVYYCAAADYYYVEYDYWGQGTQVTVSS
polyreactivity (PSR sort gate): low polyreactivity

QVQLVESGGGLVQAGGSLRLSCSACGSIFFYYAMGWYRQAPGKERELVAAITFTGGSTYYADSVKGRFTISRDNAKNTVYLRMNSLKPEDTAVYYCAADWYYGDEYEYWGQGTQVTVSS
polyreactivity (PSR sort gate): high polyreactivity

QVQIEESGGGLVQAGGSLRLSCAASGFIFRPYAMGWYRQAPGKERELVAAITGGGSTYYADSVKGRFTISRDNAKNTVYLQMISLKPEDTAVYYCNADRRRRSGGFAGWHFQRNDYWGQGTQVTVSS
polyreactivity (PSR sort gate): low polyreactivity

QVQLEESGGGLVQAGGSLRLSCAASGFIFSSNAKGWYRQAPGKERELVAAISSSGGRTYYADSVKGRFTISRDNAKNPVYLQMNSLIPEYTAVYYCNADPRSLGSANDWGQGTQVTVSS
polyreactivity (PSR sort gate): high polyreactivity

QVQLVESGGGLVQAGRSLRLSCAASGSIFRIYAMGWYGQAPGKERELVAAITWSGGGTYYADSVKGRFTNSRDNAKNTVYLQMYSLKPEDTAVYYCAADYWGYDIYYGLSERESWGQGTQVTVSS
polyreactivity (PSR sort gate): high polyreactivity

QVQQQESGGGLVQAGGSLRLSCAASGTIFQLTVMGRYRQAPGNERELVASIDYGGNTNYADSVKGRFTISRDNAKNTVYLQMNILKPEDTAVYYCPASSDSWTTHPYWGQGTQVTLSS
polyreactivity (PSR sort gate): low polyreactivity

QVQLVESGGGLVQAGGSLRLSCAASGRIFTRYAMGWYRQAPGKERELVAAITYSGGSTYYADSVKGRFTISRDNAKNTVYLQMNSLKPEDTAVYYCAAPYIGFVRHRKMGYWGQGTQVTVSS
polyreactivity (PSR sort gate): low polyreactivity

QVQLVESGGGLVQAGGSLRLSCAASGGIFGYYVMGWYRQAPGKERELVAVITRGGSTNYADSLKGRFTISRDNAKNTVYLQMNSLKPEDTAVYYCNAGPAGYYDYDYWGQGTQVTVSS
polyreactivity (PSR sort gate): low polyreactivity

QVQLVESGGGLVQAGGSLRLTSAASGFTFYPYAMGWYRQATGKEMELVAAINSGGSTYYADSVKGRFTISRDNAKNSVYLQMNSLKPEDTAVYYCAAYGKRGAVAFYYWGQGTQVTVSS
polyreactivity (PSR sort gate): high polyreactivity

QVQLVESGGGLVQAGGSLRLSCAASGFTFTHYAMGWYREAPGKERELVAAISTSVGSKYYADSVKGRFTISRDNAKNTVYVQMNSLKPEDTAVYYFAARRDGWVQWGNYYWGQVTQVTVSS
polyreactivity (PSR sort gate): low polyreactivity

QVQLVESGGGLVQAGGSLRLSCAASGSIFRLNAMGWYRQAPGKERELVAAISRNTGRTYYADSVKGRFTISRDNAKNTVYLQMNSLKPEDTAVYYCAADRSPTGYVRVYYWGQGPQVTVSS
polyreactivity (PSR sort gate): high polyreactivity

QVQLVESGGGLVQAGGSLRLSCAASGRIFRSYAMGWSIQAPGKERELVAAITSGGSTNYADSVKGRFTISRDNAKNTVYLQMNSLKPEDTAVYYCAARWPWYGKLRYYYWGQGTQVTVSS
polyreactivity (PSR sort gate): high polyreactivity

QVQLVESGGGLVQAGGSLRLSCAASGRTLYYNTMGWYRQAPGKERELVASIRWDGGSTNYADSVNGRFTISRDNAKNTVYLQMNSLKPEDTAVYYCNADPGWTELEYDYWGQGTQVTVSS
polyreactivity (PSR sort gate): low polyreactivity

QVQLVESGAGLVQAGGSLRLSCAASGSIYVYAMGWSRQAPGKERELVAAISWSDGSTYYADSVKGRFTISRDNAKNTVYLQMNSLKPEDTAVYYCNAYGIQVDTYWQDRVEYDYWGQGTQVTVSS
polyreactivity (PSR sort gate): high polyreactivity

QVQLVESGGGLVQAGGSLRLSCAASGSIFCVYAMGWYRQAPGKERELVAAISQSGGRTYYADSVKGRFTISRDNAKNTVYLQMNSLKPEDTAVYYCAAVVFNVYRRYWGQGTQVTVSS
polyreactivity (PSR sort gate): high polyreactivity

QVQLVESGGGLVQAGGSLRLSCAASGGTFSYYAMGWYRQAPGKERELVAAISKRGGSTYYADSVKGRFTISRDNAKNTVYLQMNSLKPEDTAVYYCARGYSWSVGYPRVQDMDYWGQGTQVTVSS
polyreactivity (PSR sort gate): high polyreactivity

QVQLVESGGGLVQAGGSLRLSCAASGYTFRYYAMGWYRQAPGKERELVAAISSGGSTYYADSVKGRFTISRDNAKNTVYLQMNSLKPEDTAVYYCATGPRIRYDYWGQGTQVTVSS
polyreactivity (PSR sort gate): high polyreactivity

QVQLVESGGRLVQAGGSLRLSCAASGRTFVYNAMGWYRQAPGKESELVAAISSGGGTNYADSVKGRFTISRDNAKNTVYLQMNSLKPEDTAVYYCAAGFDGSRHPGFDSWGQGTQVTVSS
polyreactivity (PSR sort gate): low polyreactivity

QVQLVESGGGLVQAGGSLRLSCAASGRTFGYNTMGWYRQAPGKERELVARITWSGASTYYADSVKGRFTISRDNAKNTVYLQMNSLKPEDTAVYYCNTAYTVSWRSPYDYWGQGTQVTVSS
polyreactivity (PSR sort gate): high polyreactivity

QFQLVESGGGLVQAGGSLRLSCAASGRIFYSNAMGWYRQAPGKERELVAAISSSGGITYYADSVKGRFTISRDNAKNTVNLQMNSLKPEDSAVYYCAVDSRHYIRAFDHWGQGTQVTVSS
polyreactivity (PSR sort gate): low polyreactivity

QVQLEESGGGLVQAGGSLRLICAASGSTFGDNAMGWSRQAPGKEGEFVAGISTNGGSTYYADSVKGRFTISRDNAKNTFYLQMNSLKPEDIAVYSCAAVNYYDQYGDYYWGQGTQVTVSS
polyreactivity (PSR sort gate): low polyreactivity

QVQLVESGGGLVQAGGSLRLSCASSGFIFHTYAMGWYRQAPGKERELVAAISGGTSSTYYADSVKGRFTISRDNAKNTVYLQMKSLKPEDTAVYYCAARSRRGGYPRYFYWGQGTQVTVSS
polyreactivity (PSR sort gate): high polyreactivity

QVQLVESGGGLVQAGGSLRLSCAASGRTFRYYAMGWYRQAPGKERELVAAITISSGSTYYADSVKGRFTISRDNAKNTVYLQMNSLKPEDTAVYYCAATRRYHFDYWGQGTQVTVSS
polyreactivity (PSR sort gate): high polyreactivity

QVQLVESGGGLVQAGGSLRLSCAASGLTFNYYAMGWYRQAPGKERELVAAISSSTGSTYYADSVKGRFTISRDNAKYTVYLQMNSLKPEDTAVYYCAAVRTKAYVSRTSQSGYWGQGTQVTVSS
polyreactivity (PSR sort gate): high polyreactivity

QVQLVESGGGLVQAGGSLRLSCAASGSIFFYAMGWYRQAPGKERELVAGITSGGSTYYADSVKGRFTISRDNAKNTVYLQMNSLKPEDTAVYYCAARRRGYKYTYNSWGQGTQVTVSS
polyreactivity (PSR sort gate): high polyreactivity

QVQLVESGGGLVQEGGSLRLICAASGRIFAGYAMGWYSQAPGKERELVAAISQDGGSTYYADSVKGRFTISRDNAKNTVYLQMNSLKPEDTAVYYCAAEDPDSWLPWDLFDYWGQGTQVTVSS
polyreactivity (PSR sort gate): low polyreactivity

QVQLVESGGGLVQAGGSLRLSCAASGLTFKVYDMGWYRQAPGKERELVAAISWSGGSTYYADSVKGRFTISRDNAKNTVYLQMNSLKPEDTAVYFCAVEPSYYVVFFPYEYWGQGTQVTVSS
polyreactivity (PSR sort gate): low polyreactivity

QVQLVESGGGLVQAGGSLRLSCAASGRIFGVNAMGLYRQAPGKERELVAVISSGGSTYYADSVKGRFTISRDNAKNTVYLQMNSLKPEDTAVYYCNAVVGRWFPYNLSDYWGQGTQVTVSS
polyreactivity (PSR sort gate): low polyreactivity

QVQLVESGGGLVQAGGSLRLSCAASGFIFYYYDMGWYRQAPGKERELVAAITYDGGSTYYADSVKGRFTSSRDNAKNTVYLQMNSLKPEDTAVYYCNAVYGQYYDYWGQGTQVTVSS
polyreactivity (PSR sort gate): low polyreactivity

QVQLVESGGGLVQAGGSLRLSCAASGSNFFSYAMGWYREAPGKERELVAAIDYSGGGTYYADSVKGRFTISRDNAKNTVYLQMNSLKPEDTAVYYCNSDTEVWADTFISYRALNYWGQGTQVTVSS
polyreactivity (PSR sort gate): low polyreactivity

QVQLVESGGGLVQAGGSLRLSCAASGSISTPYTMGWYRQAPGKERELVAAISWIGDTTSYADSVKGRFTISRDNAKNTVYLQMHSLKPEETAVYYCNAEHRGYDYWGQGTQVTVSS
polyreactivity (PSR sort gate): low polyreactivity

PVQLQESGGGLVQAGGSLRLSCAASGNIFDADIMGWYRQAPGKERELVACIADGGSTNYADSVKGRFTISRDNAKNTVYLQMNSLKPEDTAVYYCAAIAYPDIPTCFDYDSDYFIRGQGTQVTVSS
polyreactivity (PSR sort gate): low polyreactivity

QVQLVESGGGLVQAGGSLRLSCAASGSIFLQYAMGWYRQAPGKERELVAAITTSGRTYYADSVKGRFTISRDNAKYTVYLQMNSLKPEDTAVYYCAATWRYGYYAYYYWGQGTQVTVSS
polyreactivity (PSR sort gate): high polyreactivity
